Laboratory results published in patent US20070086956A1, “Method for accelerating the rate of mucociliary clearance” (BAYER AKTIENGESELLSCHAFT, priority 1998, published 2007).
Where two headings read alike, the source gives them in different places.

Key:
[1] = test system: human CF bronchial epithelial cells; experiment: Short circuit current (Isc) in cultured human cystic fibrosis bronchial epithelial cells; type: cell-based
Method: HBE cells were isolated from CF patient lung transplant tissue and grown in collagen coated flasks for one week. The cells were then passaged and seeded onto collagen coated Costar Transwell filters (0.33 cm2) and grown in DMEM/F12 media supplemented with 2% Ultroser G. Cells were grown at an air liquid interface and used 2 to 4 weeks after seeding:
Cells on the Transwell filters were mounted in modified Costar Ussing chambers and studied under Isc conditions. […] Isc was recorded for 100 minutes and then the apical bath fluid was exchanged with fresh buffer. Trypsin (100 BAEE units/mL) was added to the apical side and Isc recorded for 10 minutes. Amiloride (10 uM) was then added to the apical side and Isc was recorded for a further 10 minutes.
HBE cells were isolated from CF patient lung transplant tissue and grown in collagen coated flasks for one week. The cells were then passaged and seeded onto collagen coated Costar Transwell filters (0.33 cm^2) and grown in DMEM/F12 media supplemented with 2% Ultroser G. Cells were grown at an air liquid interface and used 2 to 4 weeks after seeding.
Cells on the Transwell filters were mounted in modified Costar Ussing chambers and studied under Isc conditions. […] Isc was recorded for 90 minutes and then amiloride (10 uM) was added and Isc was recorded for a further 10 minutes. The apical bath fluid was then exchanged with fresh buffer, and Isc was recorded for a further 15 minutes. Trypsin (1 uM) was added to the apical side and Isc recorded for 15 minutes. Amiloride (10 uM) was then added to the apical side and Isc was recorded for a further 10 minutes.

sheep airways = experiment: Tracheal mucus velocity in the sheep; type: in vivo
Method: The aim of this study was to investigate the effect of the Kunitz family serine protease inhibitor Bikunin (1-170) described in Example 17 on sheep trachcal mucus velocity over 8 hours after treatment. This agent was delivered by nebulised aerosol administration to the airways. The procedure used in this example is described in O'Riordan et al., J. Applied Physiol. 85(3), 1086-1091, 1998.
Adult ewes were restrained in an upright position, with their heads immobilized, in a specialized body harness. They were nasally intubated with an endotracheal tube, with the cuff placed just below the vocal cords. The inspired air was warmed and humidified. To minimize possible impairment of TMV caused by inflated cuffs, the endotracheal tube cuff remained deflated throughout the study except for the period of aerosol administration.
To measure TMV 5 to 10 radiopaque Teflon particles (approximately 1 mm in diameter, 0.8 mm thick, and weighing 1.5 to 2 mg) were insufflated into the trachea via a catheter placed within the endotracheal tube. The movement of the Teflon particles was then measured over a 1 minute period. The procedure used in this example is described in Russi et al., J. Applied Physiol. 59(5), 1416-1422, 1985. A collar containing radiopaque markers of known length was applied to the exterior of the animals and used as a standard to convert distance traversed by the particles on the video screen to actual distance traveled. TMV was calculated from the average distance in a cephalad direction traveled per minute for 5 to 10 Teflon particles. Baseline TMV was measured immediately prior to administration of aerosol.
Test substances; PBS, 1 mg/mL Bikunin in PBS, or 3 mg/mL Bikunin in PBS; were delivered to the sheep airways as an aerosol (3 mL) generated using a Raindrop jet nebuliser operated at a flow rate that produced droplets of mass median aerodynamic diameter of 3.6 um. […]

guinea pig trachea = experiment: Tracheal potential difference in the guinea-pig; type: in vivo; conditions: 5 ug topical instillation; three hours of treatment; relative to vehicle; FIG. 15
Method: The aim of this study was to investigate the effect of the Kunitz serine protease inhibitor Bikunin, and the sodium channel blocker amiloride on guinea-pig tracheal potential difference 3 hours post treatment. These agents were delivered into the cephalad trachea by topical instillation. TPD was monitored 2 hours later for 60 minutes. The procedure used in this Example is described in Newton et al. in “Cilia, Mucus and Mucociliary Interactions,” Ed., Baum, G. L. et al., Marcel Dekker, New York, 1998; Newton et al., Ped. Pulm. S17, Abs. 364, 1998).
Aqueous formulations of Bikunin (1-170) (5 and 50 ug/mL (SEQ ID NO: 52)) (as described in Example 17 below) and amiloride (obtained from Sigma Chemicals, St. Louis, Mo., USA)(100 uM) were prepared, sterile filtered and endotoxin tested prior to use. […]
Two hours following agent treatment, guinea-pigs were anaesthetised for a second time with Hypnom® and Hypnovel® and immobilised in a supine position. Rectal temperature, measured with a thermistor probe was maintained at 37° C. by manual adjustment of a heat lamp. […] 20 min. following induction of i.m. anaesthesia the tracheal agar electrode was inserted into the cephalad trachea and tracheal potential difference was measured for 60 minutes. […]

[2] = Stability to degradation on incubation; type: physicochemical; conditions: 72-hours incubation at ambient temperature or at 37° C., neutral pH
human plasma kallikrein = target: T1, human plasma kallikrein (Homo sapiens, UniProt P03952); experiment: Anti-protease activity before and after nebulization; type: biochemical
T1 construct: purchased Sigma (St. Louis, Mo.)
T1 sequence (P03952 391-638 limits assumed): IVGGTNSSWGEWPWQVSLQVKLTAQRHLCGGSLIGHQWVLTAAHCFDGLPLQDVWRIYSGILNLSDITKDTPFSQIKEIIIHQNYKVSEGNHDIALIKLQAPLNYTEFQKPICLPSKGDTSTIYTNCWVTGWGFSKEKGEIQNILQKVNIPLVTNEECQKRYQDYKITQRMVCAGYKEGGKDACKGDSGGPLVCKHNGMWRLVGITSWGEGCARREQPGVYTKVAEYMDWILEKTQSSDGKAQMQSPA
T1 sequence (P03952 20-390 partner limits assumed): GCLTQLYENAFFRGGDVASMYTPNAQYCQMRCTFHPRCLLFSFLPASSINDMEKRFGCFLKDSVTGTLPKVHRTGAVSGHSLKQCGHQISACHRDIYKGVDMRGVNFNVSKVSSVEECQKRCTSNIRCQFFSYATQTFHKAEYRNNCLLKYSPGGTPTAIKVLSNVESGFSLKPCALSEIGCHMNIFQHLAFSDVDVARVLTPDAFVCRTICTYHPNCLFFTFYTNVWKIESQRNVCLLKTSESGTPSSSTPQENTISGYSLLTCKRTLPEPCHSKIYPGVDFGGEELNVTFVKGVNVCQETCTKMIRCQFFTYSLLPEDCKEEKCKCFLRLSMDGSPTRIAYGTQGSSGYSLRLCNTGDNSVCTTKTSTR
Method: The aim of this study was to assess the anti-protease activity of Bikunin (1-170) described in Example 17 following nebulization. All studies were performed with Bikunin formulated in phosphate buffered saline, pH 7.4 (137 mM NaCl, 3 mM KCl, 3 mM KH2PO4, 8 mM Na2HPO4, 0.02 g/L Tween 80).
Raindrop® Medication Nebulizer: Bikunin was aerosolized at concentrations of 1 and 3 mg/mL. The nebulizer cup was filled with 2.5 mL of Bikunin solution. Aerosolisation was performed at 7.35 L/min or 35 psi.
Collison Nebulizer: Bikunin was aerosolised at a concentration of 4.7 mg/mL. The nebulizer cup was filled with 2.5 mL of Bikunin solution. Aerosolisation was performed at 35 psi.
Aerosolised Bikunin was collected using a twin impinger (6.4 um mean aerodynamic particle cut-off size at 60 L/min through the system). The impinger works on the principle of liquid impingement and divided the aerosol into a non-respirable fraction (>6.4 um collected in Stage 1) and a respirable fraction (<6.4 um collected in Stage 2).
Bikunin activity was measured in vitro by its inhibition of human plasma kallikrein.

B1: CHO Bikunin (1-170): Glycosylated placental bikunin (1-170), SEQ ID NO: 52, expressed in Chinese hamster ovary cells (Example 17) (protein, listed as Homo sapiens)
chain: ADRERSIHDFCLVSKVVGRCRASMPRWWYNVTDGSCQLFVYGGCDGNSNNYLTKEECLKKCATVTENATGDLATSRNAADSSVPSAPRRQDSEDHSSDMFNYEEYCTANAVTGPCRASFPRWYFDVERNSCNNFIYGGCRGNKNSYRSEEACMLRCFRQQENPPLPLGSK
modifications: glycosylated, CHO-expressed
In the case of B1, the Isc ([1]; 1 ug/mL) is reported as “inhibited”, the Isc ([1]; 10 ug/mL in PBS, over a 90 minute period, FIG. 28(a)) is reported as “inhibited Isc” and the Isc ([1]; 10 ug/mL in PBS, over a 90 minute period, FIG. 28(a), listed as CHO expressed Bikunin (1-170)) is reported as “decreases sodium current”. For the same molecule, the Isc ([1]; 1, 5, and 10 ug/mL, at 90 minutes after apical application, FIG. 28(b)) was “decreases sodium current”, the Isc ([1]; 1, 5, and 10 ug/mL, at 90 minutes after apical application, FIG. 28(b), listed as bikunin (1-170)) was “inhibited Isc” and the TMV (sheep airways; 3 mg aerosol (3 mL of 1 mg/mL), any time point versus vehicle) was “no significant differences”. For the same molecule, the TMV (sheep airways; 9 mg aerosol (3 mL of 3 mg/mL), at 0, 0.5, 3, 4, 5, 6, 7, and 8 hours versus PBS vehicle, FIG. 22) was “significantly increased TMV”, the TMV (sheep airways; 9 mg aerosol, at 24 hours) was “returned to baseline rates” and the tracheal potential difference (guinea pig trachea) was “inhibited the potential difference”. For the same molecule, the stability to degradation [2] was “stable to degradation”, the Ki (human plasma kallikrein; Collison nebulizer, 4.7 mg/mL, read-out: Activity (Ki), post-nebulization) was 0.45 nM and the Ki (human plasma kallikrein; Collison nebulizer, 4.7 mg/mL, read-out: Activity (Ki), pre-nebulization) was 0.27 nM. The stability to aerosolization (human plasma kallikrein; Raindrop and Collison nebulizers) was “stable to aerosolization and retained its anti-protease activity”, the Ki (human plasma kallikrein; Raindrop nebulizer, 1 mg/mL, read-out: Activity (Ki), post-nebulization) was 0.76 nM and the Ki (human plasma kallikrein; Raindrop nebulizer, 1 mg/mL, read-out: Activity (Ki), pre-nebulization) was 0.47 nM. The Ki (human plasma kallikrein; Raindrop nebulizer, 3 mg/mL, read-out: Activity (Ki), post-nebulization) was 0.62 nM and the Ki (human plasma kallikrein; Raindrop nebulizer, 3 mg/mL, read-out: Activity (Ki), pre-nebulization) was 0.52 nM.
